Results on 167 variants are retold here after the RNAGym collection of RNA variant scans (doi:10.7554/elife.80360).

First the molecules themselves.
B1: HDV Ribozyme (parent)
chain: GGCCGGCAUGGUCCCAGCCUCCUCGCUGGCGCCGGCUGGGCAACAUUCCGAGGGGACCGUCCCCUCGGUAAUGGCGAAUGGGACCCA

In the series the parent is B1. Briefly: self-cleavage, relative activity (ratio to wild type); higher = more cleavage; co-transcriptional.
Turning to C18A A87G, the self-cleavage is 0.0811.
Next, C18A A87C: 0.134.
Next, C18G G38A: 0.0978; C18G A83C: 0.192; C18G A83G: 0.0707.
On to C18U A42G, for which the self-cleavage came to 0.151.
C18U A42U: the self-cleavage worked out at 0.0627.
For the variant C18A G59A, the self-cleavage came out at 0.228.
Next, C18A G59U: 0.113; C18G C64A: 0.
Next, C18A U72G: 0.19.
Next, C18A U72C: 0.0437; C18G U23C: 0.227; C18G U23A: 0.
Take G17U G68U: the self-cleavage worked out at 0.611.
For the variant C18G G34U, the self-cleavage was 0.
Next, C18G G34C: 0.104; C18U A83U: 0.243; C18G U46G: 0.0692.
Next, C18G U46A: 0.145; C18A A56C: 0.0573.
Next, C18A A56U: 0.222; C18G C21U: 0.128; C18G C21G: 0.175.
As for C18U G39A, the self-cleavage was found to be 0.0302.
Next, C18U G39U: 0.0997; C18U C64G: 0.736.
Next, C18U C64U: 0.751; C18U C64A: 0.332; C18G G28C: 0.0573.
Next, C18G G28A: 0.0346; C18A C44A: 0.17.
C18A C44G: the self-cleavage stood at 0.193.
Next, C18A C44U: 0.219; C18A C86G: 0.185; G17U G59C: 0.432.
With G17U G59U, the self-cleavage was 0.43.
Next, C18G A78U: 0.0723; C18U G31C: 0.0326.
C18U G31U: the self-cleavage came out at 0.119.
With C18A C49U, the self-cleavage was found to be 0.133.
Next, C18A G68A: 0.237.
Next, C18A G68C: 0.212; C18G C32U: 0.172; C18G C32A: 0.166.
Next, C18G G25A: 0.0504; C18G G25C: 0.222.
On to C18G C63U, for which the self-cleavage turned out to be 0.0386.
Take G17U G38A: the self-cleavage stood at 0.0755.
Next, G17U G34U: 0.0554.
Turning to G17U G34C, the self-cleavage came to 0.0692.
On to C18A A78C, for which the self-cleavage is 0.0978.
Next, C18A A78G: 0.131; C18U C22G: 0.0462.
Next, C18U C22A: 0.27; G17U C66U: 0.469.
Next, G17U C66G: 0.464.
Consider G17U C66A, for which the self-cleavage worked out at 0.684.
For C18G G52A, the self-cleavage was determined as 0.156.
Next, C18A C64U: 0.256; C18A C64G: 0.0678.
Next, C18U C63A: 0.293.
Next, C18U C24A: 0.123; C18U C24G: 0.0665; C18A G81C: 0.163.
Regarding C18A G81A, the self-cleavage was determined as 0.0755.
For the variant C18A G81U, the self-cleavage came to 0.0817.
Take C18A U47C: the self-cleavage is 0.0536.
Next, C18A C19U: 0.0339; C18G C86G: 0.0831; C18U C57U: 0.867.
Next, C18U C57A: 0.958; C18A A83U: 0.237; C18A A83C: 0.0831.
C18U C30G: the self-cleavage came to 0.0583.
Next, C18U C30A: 0.156; C18G C19A: 0.119; G17U G39C: 0.0755.
Next, G17U G39U: 0.126.
Next, C18U C66U: 0.801; C18U C66A: 0.407.
With C18A U60A, the self-cleavage was found to be 0.135.
For C18A U60G, the self-cleavage amounted to 0.
Next, C18A U60C: 0; C18G U72G: 0.
Next, C18G U72C: 0; G17U U20G: 0; C18U G53U: 0.918.
Next, C18G G81C: 0.
Regarding C18G G81A, the self-cleavage worked out at 0.277.
Next, G17U U46G: 0.0554; G17U U46A: 0.111.
Next, G17U G73C: 0.145; G17U G73U: 0.222.
On to G17U G73A, for which the self-cleavage was 0.233.
Next, C18A G76U: 0.228; C18A G76C: 0.14.
Next, C18A C24G: 0.107; C18G G80A: 0.0563.
For C18G G80U, the self-cleavage was found to be 0.0621.
Take C18U A71G: the self-cleavage came to 0.504.
Next, C18G C41A: 0.196; C18G U27G: 0.128; G17U G31A: 0.107.
Next, C18A C84A: 0.151; C18A C84G: 0.0437; C18U C49U: 0.587.
Take C18A G34C: the self-cleavage is 0.136.
On to C18A G34A, for which the self-cleavage came to 0.0326.
Next, C18U C86A: 0.82; C18U C86U: 0.886; C18A G35C: 0.147.
Next, C18A G35U: 0.0604.
Next, C18U C41G: 0.0314; C18U G52U: 0.594.
As to C18U G52A, the self-cleavage came out at 0.737.
Next, C18U G52C: 0.774; G17U G40A: 0.246.
Next, C18G A43C: 0.332.
Next, C18G A43G: 0.145.
Turning to G17U U23C, the self-cleavage worked out at 0.219.
Next, G17U U23A: 0.397; G17U C75G: 0.0594; G17U C75U: 0.181.
Next, C18A G74U: 0.0528; C18A G74A: 0.0674.
Next, C18A G74C: 0.0791; C18U G28A: 0.0346.
C18U G28U: the self-cleavage worked out at 0.0573.
Next, C18G A51U: 0.0489.
Next, C18G A51G: 0; C18G A51C: 0.208.
C18G G82A: the self-cleavage was 0.0462.
Next, G17U C84U: 0.487; G17U C84A: 0.445; G17U G80C: 0.102.
On to G17U G80U, for which the self-cleavage is 0.156.
Next, G17U G80A: 0.272.
Next, C18G A45U: 0.217; C18G A45C: 0; C18A C62G: 0.135.
Next, C18U A77U: 0.0678; C18U A77G: 0.623; C18U A77C: 0.342.
Regarding C18A G50A, the self-cleavage is 0.23.
Next, C18A G50C: 0.219.
Regarding C18A G50U, the self-cleavage was determined as 0.197.
C18G C44A: the self-cleavage turned out to be 0.
Next, C18G C44U: 0.0426; G17U G35C: 0.125.
Next, G17U G35U: 0.198.
Next, G17U G35A: 0.133; C18A G53A: 0.0652; G17U G54A: 0.326.
As to C18A G29A, the self-cleavage worked out at 0.0604.
Next, C18A C36U: 0.0386.
Turning to C18A G54A, the self-cleavage stood at 0.0779.
Consider C18A G54U, for which the self-cleavage worked out at 0.135.
Next, C18U C32A: 0.166; C18A C57A: 0.219; C18A C57G: 0.208.
Next, G17U U72A: 0.119; C18A: 0.145.
As for C18U, the self-cleavage worked out at 0.732.
As to C18G, the self-cleavage stood at 0.131.
C18A C22U: the self-cleavage came to 0.0378.
As to C18A C22G, the self-cleavage was 0.0811.
